From the RNAGym collection of RNA variant scans (doi:10.7554/elife.80360)

B1: HDV Ribozyme (parent)
chain: GGCCGGCAUGGUCCCAGCCUCCUCGCUGGCGCCGGCUGGGCAACAUUCCGAGGGGACCGUCCCCUCGGUAAUGGCGAAUGGGACCCA

Variants of: B1
Assay: self-cleavage, relative activity (ratio to wild type); higher = more cleavage; co-transcriptional

First: GGCCGGCAUGGGCCCAGCCUCCUCGCUGGCGCCGGCUGGGCAACAUUCCGAGGGGACCGUCCCUUCGGUAAUGGCGAAUGGGACCCA [U12G C64U]
Second: GGCCGGCAUGGUACCAGCCUCCUUGCUGGCGCCGGCUGGGCAACAUUCCGAGGGGACCGUCCCCUCGGUAAUGGCGAAUGGGACCCA [C13A C24U]
The self-cleavage of the first is higher: 0.914 for the first, 0.145 for the second.

Going from GGCCGGCAUGGGCCCAGCCUCCUCGCUGGCGCCGGCUGGGUAACAUUCCGAGGGGACCGUCCCCUCGGUAAUGGCGAAUGGGACCCA [U12G C41U] to GGCCGGCAUGGGCCCAGCCUCCUCGCUGGCGCCGGCUGGGCAACAUUCCGAGGGGACCGUCCCCUCGGUAAUGGAGAAUGGGACCCA [U12G C75A], the self-cleavage falls from 0.982 to 0.

Going from GGCCGGCAUGGGCCCAGCCUCCUCGCUGGCGCCGGCUGGGCAACAUUCCGAGGGGACGGUCCCCUCGGUAAUGGCGAAUGGGACCCA [U12G C58G] to GGCCGGCAUGGGCCCAGCCUCCUCGCUGGCGCCGGCUGGGCAACAUUCCGAGGGGACUGUCCCCUCGGUAAUGGCGAAUGGGACCCA [U12G C58U], the self-cleavage rises from 0.499 to 0.751.

Going from GGCCGGCAUGGGCCCAGCCUCCUCGCUGGCGCCGGCUGGGCAAUAUUCCGAGGGGACCGUCCCCUCGGUAAUGGCGAAUGGGACCCA [U12G C44U] to GGCCGGCAUGGUACCAGCCUCCUCGCUGGCGCCGGCUGGGGAACAUUCCGAGGGGACCGUCCCCUCGGUAAUGGCGAAUGGGACCCA [C13A C41G], the self-cleavage falls from 0.598 to 0.0504.

First: GGCCGGCAUGGUACCAGCCUCCUCGCUGGCGCGGGCUGGGCAACAUUCCGAGGGGACCGUCCCCUCGGUAAUGGCGAAUGGGACCCA [C13A C33G]
Second: GGCCGGCAUGGGCCCAGCCUCCUCGCUGGCGCCGGCUGGGCAACAUUCCGAGGGGACCGUCCCCUCGGUAAUGGCGAAUCGGACCCA [U12G G80C]
The self-cleavage of the first is higher: 0.175 for the first, 0.0791 for the second.

First: GGCCGGCAUGGGCCCAGCCUCCUCGCUGGCGCCGGCUGGGCAACAUUCCGAGGGGACCGUCCCCACGGUAAUGGCGAAUGGGACCCA [U12G U65A]
Second: GGCCGGCAUGGGCCCAGCCUCCUCGCUGGCGCCGGCUGGGCAACAUUCCGAGGGUACCGUCCCCUCGGUAAUGGCGAAUGGGACCCA [U12G G55U]
The self-cleavage of the first is higher: 1.06 for the first, 0.748 for the second.

First: GGCCGGCAUGGGCCCAGCCUCCUCGCUGGCGCCGGCUGGGCAACAUUCCGAGGGGAUCGUCCCCUCGGUAAUGGCGAAUGGGACCCA [U12G C57U]
Second: GGCCGGCAUGGGCCCAGCCUCCUCGCUGGCGCCGGCUGGGCAACAUUCCGAGGGGACCGUCGCCUCGGUAAUGGCGAAUGGGACCCA [U12G C62G]
The self-cleavage of the first is higher: 0.831 for the first, 0.437 for the second.

GGCCGGCAUGGGCCCAGCCUCCUCGCUGGCGCGGGCUGGGCAACAUUCCGAGGGGACCGUCCCCUCGGUAAUGGCGAAUGGGACCCA [U12G C33G] and GGCCGGCAUGGUACCAGCCUCCUCGCUGGCGCCGGCUGGGCAACAUUCCGAGGGGACCGUCCCCUCGGUAAUGGCGGAUGGGACCCA [C13A A77G] are the same in self-cleavage: 0 for the first, 0 for the second.

Going from GGCCGGCAUGGUACCAGCCUCCUCGCUGGCGCCGGCUGGGCAACAUUCCGAGGGGACCGUCCCCUCGGUAAUGGCGCAUGGGACCCA [C13A A77C] to GGCCGGCAUGGUACCAGCCUCCUCGCUGGCGCCGGCUGGGCAACAUUCCGAGGGGACCGUCCCCUCGGUACUGGCGAAUGGGACCCA [C13A A71C], the self-cleavage rises from 0.0462 to 0.135.

Compared with GGCCGGCAUGGUACCAGCCUCCUCGCUGGCGCCGGCUGGGCAACAUUCCGAGGGGACCGUCCCCUCGGUAGUGGCGAAUGGGACCCA [C13A A71G], GGCCGGCAUGGUACCAGACUCCUCGCUGGCGCCGGCUGGGCAACAUUCCGAGGGGACCGUCCCCUCGGUAAUGGCGAAUGGGACCCA [C13A C18A] is higher in self-cleavage: 0 for the first, 0.169 for the second.

Compared with GGCCGGCAUGGUACCAGCCUCCUCGCUGGCGCCGGCUGGGCAACAUUCCGAGGGGACCGUCCCCUCGGUAAUGGCGAAUGGGUCCCA [C13A A83U], GGCCGGCAUGGUACCAGCCUCCUCGCUGGCGCCGGCUGGGCAACAUUCCGAGGGGCCCGUCCCCUCGGUAAUGGCGAAUGGGACCCA [C13A A56C] is higher in self-cleavage: 0.142 for the first, 0.156 for the second.

Compared with GGCCGGCAUGGUACCAGCCUCCUCGCUGGCGCCGGCUGGGCAACAUUCCGAGGGGACGGUCCCCUCGGUAAUGGCGAAUGGGACCCA [C13A C58G], GGCCGGCAUGGUACCAGCCUCCUCGCUGGCGCCGGCUGGGCAACAUUCCGAGGGGACAGUCCCCUCGGUAAUGGCGAAUGGGACCCA [C13A C58A] is higher in self-cleavage: 0.0639 for the first, 0.155 for the second.

First: GGCCGGCAUGGUACCAGCCUCCUCGCUGGCGCCGGCUGGGCAACAUUCCGUGGGGACCGUCCCCUCGGUAAUGGCGAAUGGGACCCA [C13A A51U]
Second: GGCCGGCAUGGGCCCAGCCUCCUCGCUGGCGCCGGCUGGGCAACAAUCCGAGGGGACCGUCCCCUCGGUAAUGGCGAAUGGGACCCA [U12G U46A]
The self-cleavage of the first is lower: 0.172 for the first, 0.332 for the second.

Going from GGCCGGCAUGGGCCCAGCCUCCUCGCUGGCGCCGGCUGGGCAACAGUCCGAGGGGACCGUCCCCUCGGUAAUGGCGAAUGGGACCCA [U12G U46G] to GGCCGGCAUGGGCCCAGCCUCCUCGCUGGCGCCGGCUGGGCAACAUUCCGAGGGGACCGUCCCCUCGUUAAUGGCGAAUGGGACCCA [U12G G68U], the self-cleavage rises from 0.692 to 0.779.

Going from GGCCGGCAUGGUAGCAGCCUCCUCGCUGGCGCCGGCUGGGCAACAUUCCGAGGGGACCGUCCCCUCGGUAAUGGCGAAUGGGACCCA [C13A C14G] to GGCCGGCAUGGUAUCAGCCUCCUCGCUGGCGCCGGCUGGGCAACAUUCCGAGGGGACCGUCCCCUCGGUAAUGGCGAAUGGGACCCA [C13A C14U], the self-cleavage rises from 0.0978 to 0.18.

Going from GGCCGGCAUGGGCCCAGCCUCCUCGCUGGCGCCGGCUGGGCAACAUUCCGAGGGGACCGUCCCCUAGGUAAUGGCGAAUGGGACCCA [U12G C66A] to GGCCGGCAUGGUACCAGCCUCCUCGCUGGCGCCGGCUGGGCAACAUUCCGAGGGGACCGUCGCCUCGGUAAUGGCGAAUGGGACCCA [C13A C62G], the self-cleavage falls from 0.923 to 0.287.
